Data: patent publication US20110176995A1 (Chugai, published 2011)
Values belong to the binder of their own block, whether it stands above or below them.

Tests used:
human GPR49 protein [1] = molecular target: T1, human GPR49 protein (human, UniProt O75473 22-907); experiment: Western blotting of LoVo cell lysate
T1 construct: also called LGR5; GPR49 molecule
T1 sequence: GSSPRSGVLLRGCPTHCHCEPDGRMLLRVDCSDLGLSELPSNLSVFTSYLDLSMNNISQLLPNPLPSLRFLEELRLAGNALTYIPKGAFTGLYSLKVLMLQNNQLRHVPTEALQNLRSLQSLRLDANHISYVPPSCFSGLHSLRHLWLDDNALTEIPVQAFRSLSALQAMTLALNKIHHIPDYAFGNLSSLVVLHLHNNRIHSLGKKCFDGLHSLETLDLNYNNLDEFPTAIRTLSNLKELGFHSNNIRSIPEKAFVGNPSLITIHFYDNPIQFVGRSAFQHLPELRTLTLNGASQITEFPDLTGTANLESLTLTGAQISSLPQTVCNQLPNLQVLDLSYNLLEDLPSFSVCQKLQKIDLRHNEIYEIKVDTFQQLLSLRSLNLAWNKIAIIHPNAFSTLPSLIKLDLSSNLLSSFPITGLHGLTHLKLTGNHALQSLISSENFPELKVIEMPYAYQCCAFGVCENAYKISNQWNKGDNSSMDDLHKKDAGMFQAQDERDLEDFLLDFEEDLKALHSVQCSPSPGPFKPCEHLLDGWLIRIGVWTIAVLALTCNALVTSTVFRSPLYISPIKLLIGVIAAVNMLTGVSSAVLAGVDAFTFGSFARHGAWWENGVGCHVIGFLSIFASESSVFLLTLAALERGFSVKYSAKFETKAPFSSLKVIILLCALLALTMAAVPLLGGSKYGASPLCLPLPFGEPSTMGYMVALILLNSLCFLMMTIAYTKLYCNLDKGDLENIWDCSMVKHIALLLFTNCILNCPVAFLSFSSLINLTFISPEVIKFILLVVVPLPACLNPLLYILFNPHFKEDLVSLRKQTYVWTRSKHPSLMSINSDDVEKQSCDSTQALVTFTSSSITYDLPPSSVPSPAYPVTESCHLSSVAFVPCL

[2] = molecular target: T2, HA-GPR49 (full-length human GPR49 with an HA-tag inserted at the N-terminus) (human, UniProt O75473 22-907); experiment: flow cytometry, hybridoma supernatant on 2B10 cells against parental DG44
T2 construct: Expressed in DG44 cells (line 2B10) and, inducibly with doxycycline, in 293FlpIn T-Rex cells (lines B2, B4); On whole cells in flow cytometry and cytotoxicity assays; as cell lysate in Western blotting and immunoprecipitation; also called human GPR49/DG44 cells (2B10); HA-GPR49-expressing DG44 cell line 2B10; not shown: HA-tag inserted at the N-terminus of GPR49
T2 sequence: T1 sequence
Method: The binding to the human GPR49/DG44 cells (2B 10) was evaluated by flow cytometry using the obtained hybridomas. The cell lines expressing human GPR49 suspended in FACS buffer (2% FBS/PBS/0.05% NaN₃) were diluted to 1×10⁶ cells/mL with FACS buffer, and then aliquoted at 50 μL/well into a Falcon 353910 round-bottom 96-well plate. Hybridoma culture supernatant diluted to a suitable concentration was added to the wells containing the cells and reacted for 60 minutes on ice. Then, the cells were washed once with FACS buffer. Goat F(ab′)₂ fragment anti-mouse IgG(H+ L)-FITC (Beckman Coulter) was added to the wells containing the cells as a secondary antibody, and reacted for 30 minutes on ice. After reaction, the supernatant was removed by centrifugation, and then the cells suspended in 100 μL of FACS buffer were subjected to flow cytometry. A FACS Calibur (Becton Dickinson) was used for flow cytometry. The viable cell population was gated with a forward scatter-side scatter dot blot, an FL1 histogram was made of the cells contained in the population, and binding activity thereof was evaluated.
When the hybridoma supernatants were reacted with 2B 10 in which GPR49 is induced and expressed in DG44 cells and with the parental cell line DG44 respectively, hybridomas that specifically reacted with GPR49-expressing cells were obtained. The hybridomas from these wells were made into single clones by the limiting dilution method. The isotype of each antibody was analyzed using an IsoStrip™ mouse monoclonal antibody isotyping kit (Roche Diagnostics). As a result, 2J18-1N and 2J18-3 were IgM, and 2L7-8, 2L9-3, 2L10-19, 2L13-3, 2L15-12, 2L16-15, 2L18-15, 2L33-6, 2L34-5, 2L36-12, 2T4E-6, 2T9E1#14, 2T15E-2, 2T42E-4, 2T54-2, 2T65-3, 2T37-16, 2U1E-1, 2U2E-2, and 2U4E-11 were IgG1. Culturing of the hybridomas made into single clones was scaled up, and then the antibodies were purified from the culture supernatant using a protein G column in accordance with the manual. The IgM antibodies were purified using a protein L column in accordance with the manual. The purified antibodies were quantified by DC Protein Assay or such.

mouse GPR49 = molecular target: T3, mouse GPR49 (mouse, UniProt Q9Z1P4 22-907, limits assumed); experiment: Western blotting
T3 construct: Expressed transiently in 293T cells; the cell lysate was analysed by Western blotting; also called mouse (M) GPR49
T3 sequence (looked up): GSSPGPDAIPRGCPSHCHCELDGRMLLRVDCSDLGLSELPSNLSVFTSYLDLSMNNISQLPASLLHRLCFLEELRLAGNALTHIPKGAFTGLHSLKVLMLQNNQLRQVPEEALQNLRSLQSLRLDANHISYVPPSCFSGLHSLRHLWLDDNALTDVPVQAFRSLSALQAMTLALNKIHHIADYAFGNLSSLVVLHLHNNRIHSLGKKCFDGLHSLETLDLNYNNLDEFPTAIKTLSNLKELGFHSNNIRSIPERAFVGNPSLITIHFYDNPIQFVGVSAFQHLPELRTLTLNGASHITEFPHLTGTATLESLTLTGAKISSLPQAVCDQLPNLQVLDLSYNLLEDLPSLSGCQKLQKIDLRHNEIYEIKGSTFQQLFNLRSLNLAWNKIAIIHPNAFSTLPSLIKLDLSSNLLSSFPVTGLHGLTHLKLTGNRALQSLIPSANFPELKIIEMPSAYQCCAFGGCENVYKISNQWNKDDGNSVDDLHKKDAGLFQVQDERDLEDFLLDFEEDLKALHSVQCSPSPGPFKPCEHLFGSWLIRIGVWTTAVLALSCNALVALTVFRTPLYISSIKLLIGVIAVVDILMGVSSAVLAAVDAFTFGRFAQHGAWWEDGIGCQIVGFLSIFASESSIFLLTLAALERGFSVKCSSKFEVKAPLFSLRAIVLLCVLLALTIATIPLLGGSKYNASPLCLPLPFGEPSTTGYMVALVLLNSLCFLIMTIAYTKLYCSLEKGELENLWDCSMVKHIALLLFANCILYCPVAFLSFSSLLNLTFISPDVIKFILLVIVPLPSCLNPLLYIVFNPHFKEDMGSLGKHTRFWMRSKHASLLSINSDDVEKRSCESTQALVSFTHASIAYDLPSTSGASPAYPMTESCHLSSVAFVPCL

human GPR49 protein [3] = molecular target: T1, human GPR49 protein; experiment: flow cytometry, 10 ug/mL antibody on OVSAHO, Alexander and NUGC-4 cells
Method: The reactivity of 2T15E-2 antibody to human cancer cell lines were analyzed by flow cytometry. Human cancer cell lines suspended in a FACS buffer (2% FBS/PBS/0.05% NaN₃) were diluted to 1×10⁶ cells/mL with the FACS buffer, and the solutions were then dispensed into a Falcon 353910 round-bottom 96-well plate at 50 μL/well. 2T15E-2 antibody diluted to a concentration of 10 μg/mL was added, and this was reacted for 60 minutes on ice. Next, the cells were washed once with the FACS buffer. After adding Goat F(ab′)₂ fragment anti-mouse IgG (Fcγ)-FITC (Beckman Coulter) as a secondary antibody to the wells containing the cells, this was reacted for 30 minutes on ice. After the reaction, the supernatant was removed by centrifugation, and then the cells were suspended in 100 μL of FACS buffer containing propidium iodide (PI) and then subjected to flow cytometry. A FACS Calibur (Becton Dickinson) was used for the flow cytometry. The viable cell population was gated with a forward scatter-side scatter dot blot, an FL1 histogram was made of the cells contained in the population, and binding activity thereof was evaluated.
The peaks indicated with a solid line indicate the reactivity with cancer cell lines, and the shaded regions represent the peaks obtained when the reactions are carried out without antibodies. […]

[4] = molecular target: T2, HA-GPR49 (full-length human GPR49 with …); experiment: immunoprecipitation from 2B10 cell lysate, Western blot detection
Method: To confirm the presence of the 40-kDa and 60-kDa protein bands detected in Western blotting, immunoprecipitation experiments were carried out using GPR49 monoclonal antibodies. Cell lysate prepared by solubilizing HA-GPR49-expressing DG44 cell line 2B10 in NP40 lysis buffer (0.5% NP40, 50 mM Tris-HCl (pH7.5), 150 mM NaCl, protease inhibitor complete mini (Roche)) was used as the sample for immunoprecipitation. The amount of protein included in the cell lysate was quantified by DC Protein Assay using BSA as a standard. A solution containing 2 μg of antibody was added to 500 μL of cell lysate containing 100 μg of protein, and this was reacted at 4° C. for one hour. Additionally, 20 μL of Protein A/G Plus agarose (Santa Cruz) was added and this was reacted overnight. Agarose beads were centrifugated at 1,000×g for one minute, washed twice with 1 mL of PBS, and then antigens bound to the antibodies were eluted by adding 50 μL of 2×SDS-sample buffer and warming at 60° C. for 30 minutes. After centrifuging at 1,000×g for one minutes, 15 μL of the supernatant obtained was subjected to SDS-PAGE. […] As is seen in the lanes for the samples immunoprecipitated using 2L13-3 and 2L36-12, a 40-kDa band and a 60-kDa band in addition to the 100-kDa band could surely be detected using 2U1E-1 and 2U2E-2, respectively. […]

B1: anti-GPR49 monoclonal antibody 2U2E-2 (antibody, mouse IgG1, V domains shown)
VH: EVKLVESGGDLVKPGGSLKLSCAASGFIFSTYAMSWVRQIPEKRLEWVASISPDGNTFYPDSLKGRFTISRDNVRNILYLQMSSLRSEDTAMYYCAVTGTFAYWGQGTLVTVSG
VL: DVLMTQTPLSLPVSLGDQASISCRSSQNILHSDGNTYLEWFLQKPGQSPKLLIFKISNRFPGVPDRFSGSGSGTDFTLKISRVEAEDLGVYYCFQSSHVPYTFGGGTKLEIK
notes: Mouse IgG1 from hybridoma; light chain amplified with a kappa primer
binding result (human GPR49 protein [1]): binds | binding result [2]: binds | binding result (mouse GPR49): binds

B2: anti-GPR49 monoclonal antibody 2J18-1N (antibody, mouse IgM, V domains shown)
VH: EVQLQQSGPELVKPGDSVKMSCKASGYTFTDYYMDWVKQSHGKSLEWIGYIYPNNGGTSYNQKFKGKATLTVDKSSSTAYMELHSLTSEDSAVYYCARPYYSNSFAYWGQGTLVTVSA
VL: QIVLTQSPAIMSASPGEKVTMTCRASSSVSSSYLHWYQQKPGSSPKLWIYSTSNLASGVPARFSGSGSGTSYSLTISSVEAEDAATYYCQQYDSSPFTFGTGTKLEIK
notes: Mouse IgM from hybridoma; light chain amplified with a kappa primer
binding result [2]: binds

B3: anti-GPR49 monoclonal antibody 2U1E-1 (antibody, mouse IgG1, V domains shown)
VH: QVQLQQPGAELVEPGASVKLSCKASGYTFTNYYMYWVKQRPGQGLEWIGGINPNNGGTNFNEKFKSKATLTVDKSSSTAYMQLSSLTSEDSAVYYCTGIYYRYNWHFGVWGAGTTVTVSS
VL: DVLMTQTPLSLPVSLGDQASISCRSSQTIVHSNGNTYLEWYLQKPGQSPKLLIYKVSNRFSGVPDRFSGSGSGTDFTLKIYRVEAEDLGIYYCFQGSHVPWTFGGGTKLEIK
notes: as for B1
binding result (human GPR49 protein [1]): binds | binding result [2]: binds | binding result (mouse GPR49): binds

B4: anti-GPR49 monoclonal antibody 2L36-12 (antibody, mouse IgG1, V domains shown)
VH: QVQLQQSGAELVRPGTSVKVSCKASGYDFTNYLIEWVNQRPGQGLEWIGVINPGSGGTNYNEKFKGKATLTADKSSSTAYMQLSSLTSDDSAVYLCARYSPYGNYFDYWGQGTTLTVSS
VL: DIVMTQSHKFMSTSVGDRVSITCRASQDVGTAVAWYQQKPGQSPKLLIYWASTRHTGVPDRFTGSGSGTDFTLTINNVQSEDLADYFCQQYSSYPPTFGGGTKLEIK
notes: as for B1
binding result [2]: binds

More lines, now with the values ahead:

binding result [2]: binds | binding result (human GPR49 protein [3]): binds
B5: anti-GPR49 monoclonal antibody 2T15E-2 (antibody, mouse IgG1, V domains shown)
VH: EVQLVESGGGLVKPGGSLKISCAASGFTSSNYAMSWVRQTPEKRLEWVATISSGGGYTYYPDSEKGRFAISRDNAKNTLYLQMSGLRSEDTAMYYCATQLYYRSHYYSMDYWGQGSSVTVSS
VL: QIVLTQSPAIMSASPGEKVTMTCSASSSISYMHWYQQKSGTSPKRWIYDTSKLASGVPARFSGSGSGTSYSLTISSMEAEDAATYYCQQWHSKPATFGAGTKLELK
notes: as for B1

binding result [4]: binds
B6: anti-GPR49 monoclonal antibody 2L13-3 (antibody, mouse IgG1, V domains shown)
VH: QVQLQQSGAELVRPGTSVKMSCKAAGYTFTNSWIGWVKQRPGHGLEWIGDIYPGGDYTNYNEKFKGKATLTADTSSSTAYMQLSSLTSEDAAIYYCTRGDGYFDYWGQGTTLTVSS
VL: DIVMTQSHKFMSTSVGDRVSITCKASQDVSIDVAWYQQRPGQSPKLLIYSASYRYTGVPDRFTGSGSGTDFTFTVSSVQAEDLAVYYCQQHYSTPPTFGGGTKLEIK
notes: as for B1
